According to a protein production outcome set (Wang et al. 2014):

Test: label from the status in PepcDB records

In the case of “MKLNRAIGVIDSGVGGLTVAKELIRQLPKERIIYLGDTARCPYGPRSREEVRQFTWEMTEHLLDLNIKMLVIACNTATAVVLEEMQKQLPIPVVGVIHPGSRTALKVTNTYHVGIIGTIGTVKSGAYEEALKSINNRVMVESLACPPFVELVESGNFESEMAYEVVRETLQPLKNTDIDTLILGCTHYPILGPVIKQVMGDKVQLISSGDETAREVSTILYHSKMLNEGEEQSDHLFLTTGKIGLFKEIASKWFGQPIENVKHIHLEKE”, the protein production is reported as “failed”.

In the case of “MENFFNQFFESIGEDKNREGLKETPKRVQELWKFLYKGYKEDPRVALKSAYFQGVCDEMIVAQNIEFYSTCEHHLLPFLGNISVGYIPKEKIVGISAIAKLIEIYSRRLQIQERLTIQIAETFDEIIEPRGVIVVCEAKHLCMSMQGVQKQNAIIKTSVLRGLFKKDSKTRAEFMQLLKS”, the protein production is reported as “failed”.

In the case of “MDRDLLRQSLNCHGSSLLSLLRSEQQDNPHFRSLLGSAAEPARGPPPQHPLQGRKEKRVDNIEIQKFISKKADLLFALSWKSDAPATSEINEDSEDHYAIMPPLEQFMEIPSMDRRELFFRDIERGDIVIGRISSIREFGFFMVLICLGSGIMRDIAHLEITALCPLRDVPSHSNHGDPLSYYQTGDIIRAGIKDIDRYHEKLAVSLYSSSLPPHLSGIKLGVISSEELPLYYRRSVELNSNSLESYENVMQSSLGFVNPGVVEFLLEKLGIDESNPPSLMRGLQSKNFSEDDFASALRKKQSASWALKCVKIGVDYFKVGRHVDAMNEYNKALEIDKQNVEALVARGALYATKGSLNKAIEDFELALENCPTHRNARKYLCQTLVERGGQLEEEEKFLNAESYYKKALALDETFKDAEDALQKLHKYMQVIPYFLLEI”, the protein production is reported as “failed”.

In the case of “MWSIFRKEIAVFLNSLIAYLVILVFLTFIGVFMWVLPASSILDYGYAEMDTLFSYGPLAFLLLIPAITMRSFAEEKKDGTIELLLTKPLSDWQLLLGKYLSACTLVALALIPTVLYYISVYQLGKPVG”, the protein production is reported as “failed”.

With “MFYTTKSSMNQHNIFFGSSHVVVPVTKPFPFSLDGHVEDEDNLESQYLQWLEERVDENNNINDDQSVGERDVGDDDIDRLADKFIARCHEKFLLEKVESYRRFQDMLARSL” the protein production was “failed”.

For “MNILLAGGSGLIGQELVRGMGEEHHYTVLGRDKDAIQKIFTTKASSLSWDELNTQDASRFDAVINLCGVNIAISRWTPKIKEEIISSRVQTTENLLHWILQQNAKPRFYCANAVGIYGLQENGDATDLTEDTAINWEHPKDYLSEVGIRWQQALQKAEEAGLPVTSTRFGVVLKKGKGFLGKLYPSFICGLGSTIGDGRQYLSWIDSEDLVNAYRFLLNHPEITGPVNVTSPNPCMQREFAKAFAKSLHRPLLLWTPAFIIHLLFGEMGDCLINHGQKVKPKRLLEAGFEFKWPDIEKALKHQYSAILEHHHHHH”, the protein production was “not failed”.

With “HGILIRSSAFLEELADLTSLVVDKTGTLTHGSLRLQALRLADAAEEASVLRLAASLGAASSHPVSRALAALAAHDAYHPLSDIRERQGFGVVARTAAGEAALGRPELFQQLGIDASEVPEHEGPIAGIALDGRFLGWLLLADSVRAEAAEALADLRELGLGRQLLLTGDRRAVADAVAKQVGIRQLVAQALPEDKLRQVGAEIGSGFRPMVVGDGINDSLALKAGVVGVAMGAGGADIALASADIVLIGSDLRRLGTCVRLSR” the protein production was “failed”.

For “MEKLKSLIPEDLLQTVKSSSVDDLLSTSSSLLRLFLGLPQFHQAVSELANPELGCCGKNEETSLDLKRRGNHCFRSRDFDEALRLYSKALRVAPLDAIDGDKSLLASLFLNRANVLHNLGLLKESLRDCHRALRIDPYYAKAWYRRGKLNTLLGNYKDAFRDITVSMSLESSLVGKKQLQNELKAIPDYQNNQTLEHDEYRPSNDAGVDHLPSVQMEVKLRCVSTKEKGRGMVSECDIEEASVIHVEEPFSVVISKSCRETHCHFCLNELPADTVPCPSCSIPVYCSESCQIQSGGMLSTNEMDKHHIFQKLPDDIVEHIKGVTSADIYYFATDLIQEHQHECRGANWPAVLPSDAVLAGRIIMKLINQGKAATDLSNLQEILELSHTYSKMNPENKLELHLLSIVLIWCLSKSSCPNLSVCEASVTQTIILLSQIKVNSIAVARMKSSGDSFKCLPSGNISTKEPIQSLEQIRVGQALYKTGSLFNHSCKPNIHLYFLSRGLIMQTTEFVPTGCPLELSYGPEVGKWDCKNRIRFLEEEYFFHCRCRGCAQINISDLVINGYGCVNTNCTGVVLDSNVATCESEKLNHFFTAPRNVDQQVQMREKVYADVGEVASSLLSKPSGSLHIEPEICLKCGSRCDIENSHAEVNKAWNHMRRVEELMNSGRANYSVLSDCSRSIAVLRTFLHMYNKDIADAEDKVAQACYLAGELVDARKHCEASIKILKRLYEDEHVVIGNEMVKLASIQLASGDSSGAWDTTKRSSQIFSKYYGSHAETLFSYLPCLKQETAKAVNLSTS”, the protein production was “failed”.

With “MEALAELIKRKVPNEGLIIEVGVGFYLKVAKKLKEYGFNVVVVDINQEAVKNAIKERIPGFVDDVFNPNLKIYLKARAIYSIRPNPEIMMALLTLAKKVKVPLYIVPLSGDVPPREMKLINYKGISVYVWEP” the protein production was “failed”.

For “MSVPSPVNESLLSQRLAALGAARSWAPNVLPELEHFIRTADDYDLLRVNPIQYGGAVRMSEADAIELFVHAAKVGLFDMDWLLICAYCPQVAGSFRELDQVHPRFQCAFCNAINDVALDDYIQVAFTVSSGVRDIIFRHPERLSVEDFYLRYNFSKGFIAPHGMTHQQLVAALSRGFADIEAHEHRSFDFEVTAGRFEVLDLSHKLLLVFFADGEPAEPQETLVQLESGRFHVPDRPTAPKDMVLGDGQFSFRQTADLSPGKHTIRIENRTDDRGRFWFVQYPPGFAPHLVEYEPFLSGKRLLLTPSFRELYKAQLVDEGESIKVSDMTFLFTDLKKSTPLYESVGDVNAYFLVRQHFEILNRIIRERSGTIIKTIGDAVMAGFERPQDAVCAAIEMIEELSRFNQTASRPLGLKVGVHRGRAIAVNLNDRIDYFGQDVNIAARVQGLADVDEVCISATAMEAPGVGDIVNSRSVSRNYENLKGIGQKMEVHRMTIPPTQT”, the protein production was “failed”.

With “MNKKILATAVLGTGALSTLFAHQAEASTTHTVRSGESLWSISHHYGITVSKLKSLNGLSSNLIFPNQVLKVSGSSNYSSRSNYGNSSSTYTVRAGDSLSSIASRYGTTYRHIMNLNGLNSFLIFPGQQLKVSGSVSSNSHSSYNSNSGGSSSTYTVRYGDSLSSIASRYGTTYQHIMRLNGLNNFFIYPGQKLRVSGSASSNTYSTRSAQSTYYSSPVFNHRNLYDWGQCTWHVFNRRAAIGKGISTYWWNANNWDNAAARDGYRIDGNPTVGSIAQSDAGYYGHVAFVERVNSNGSILVSEMNFSASPGILTYRTIPAYQVRNYKFIH” the protein production was “failed”.

With “MQLYYLGPKGTFSYLACRQYFSENEATFQPKSNLFEVIKAVADDDTSIGVVPIENSIEGTINIVADALAQQDVFAHGEIRLDINFALYGNGTDSISDIKKVYSIAPAISQTTNYIHQHQFDYDYVDSTIQSLTKIENGVAAIAPLGSGEAYGFTPIDTHIEDYPHNVTRFLVIKNQQQFDQNATSLMFLITPMHDKPGLLASVLNTFALFNINLSWIESRPLKTQLGMYRFFVQADSAITTDIKKVIAILETLDFKVEMIGAFN” the protein production was “not failed”.

With “MPDLPLAPEALDLSPAFLEVAACPACHSRFALDFDSGELVCSSPSCGLAFLVRDGVPDLRLDAARKRETGQGVTAEDTEAFEPTHRHEMRPQ” the protein production was “failed”.

For “MQFNPTLDSIKTYEAGKPIELVVREYGIKPQNVIKLASNENPFGASPKVIEAIAKEAVNAHRYPDDSMFELKEGLAGRFGVKSENVIIGSGSDQILEMAVHAKCNASSKVLMSKTTFAMYDVYSRQVGARILRTPSDQHHLGEFWEIYQKERPEILFLCLPNNPLGECLDREEVYDFLQKIDDETLVIVDGAYQEYAAFKDSQKRIDPKDLIERFPSSIFLGTFSKAFGLGGMRVGYGIAQPSIIQALMKMRAPFNITTLSLKAAIEALKESAYVEETIKENFKEMRRYEEFALAQGIDFIPSYTNFITLLLKNRVDSSEFSQWLLERGLIVRNLKSYGINAIRITIGRSLENDRCFELMQEYLHQF”, the protein production was “failed”.

In the case of “MLCCLRIENFALIDHLELDLQAGLMVLTGETGAGKSIILDALDLALGGKATARLIRAKNDQGDATGERAFIEATFSLTPSIKQWLQSQDIDLLEDETVICSRELSLTRTGLRSRSRVNGIILNQGLMAELRAQLLEITAQGQTVELLIPERQRILLDSYGGSQVQQQRQLVNLAYQTYLKAKQLLESRRTSEQERLQRLDLLQYQLQELRDAHLEDSEELETLQQEGDRLSHVVELQQLSYQAHQILYQNDDPETPAVADLLGEAENLLKEMVDYDTQLNGILD”, the protein production is reported as “failed”.

In the case of “MVPALALGLVIGVLLVVIGVSFAAMIFSGPLAPLATRGAGLTLFGAASLCGFLAVSSSFRSAISTPQDAPVAVLATMGVPVVAAMGMSDPNATFATMLAAMSIATLATGIALMAIGHFRLTRFFRFMPYPVVGGFLAGGGWMLVKGGISVMSSLSLNVESLPMLFESVHIWKWSPGVLYAISLWLVLKRWSHFLILPCSIVMVTAAYYVAFHILAISLADARAAGILLSGVPSSGLWPAFSISDLQTVRWDIVFDQTPIMFTVVLVTMMGLLLNISGLELGSGTDIDFDREFRNAGLANTLGGLGGSAPGSHTLSLSLLCSSSGAYTRLAGIITASVIAAVLFMGGSVLEYFPLPVLGGLLVFLGIDIMDSWLRATRRRLPLSDYLVLCVIFLVICFSGFLEGVAVGLVITVVLFIIRLSKVDIIHDSFTGLTLHSRVNRSIPQRTILQQHGERIRGYRLSGYLFFGSASLLVETLKQELRKTPQPWCILLDFKNVSGFDISAANAFQRFISSAHAEHVRIVLTETSPRFISMLQRILPIESIDNLVTAQDIDRGLEACEEAILTEYTERTAQQANAADMLFEQSVDDMMAHLDRQILFEALVEELRPWVQECHYEGETLLVEKGKTQQGLQMLVWGSATATDGDGGTRLAHLRAGDVLVPQAAFAPFVAREHIMADSPCRTVLLTAQARLLMEQENPDLALRLDRYVISSWKA”, the protein production is reported as “failed”.

With “MAADGIFRSIFEGCISGLDSAIERRPYHKNCGCALHDKSSGAGKNQNQRRPPSCRRHGSSESISFPIRRSWSEGNIMAMNLFSSSSSSSNLQSLSSSSSLSNLASDLPVDNAATEEPSRSNKQLRWTIDEGEDD” the protein production was “failed”.

With “DSALENPAQVRNYLKAQLRHEPHEVFACLFLDNKHRVMTFEILFRGTINASYVHPRQVVKRALAHNAASLILCHNHPSGITTPSRSDIDLTKRLKEALKLVDVHVLDHVIVGDGEPLSMVEKGLM” the protein production was “not failed”.

For “MIKSTNIQAIGSGIMHQINNVYSLTPLSLPMELTPSCNEFYLKTWSEWEKNGTPGEQRNIAFNRLKICLQNQEAELNLSELDLKTLPDLPPQITTLEIRKNLLTHLPDLPPMLKVIHAQFNQLESLPALPETLEELNAGDNKIKELPFLPENLTHLRVHNNRLHILPLLPPELKLLVVSGNRLDSIPPFPDKLEGLALANNFIEQLPELPFSMNRAVLMNNNLTTLPESVLRLAQNAFVNVAGNPLSGHT”, the protein production was “failed”.

In the case of “MYLLTFILIRINKYSDKAKKSAILVLLFLSLGAILKILEIADPSVKMDYIIQLVYSLTVFGAFVALSFYIKFLETPPSLTVHHSTKLPKNGGSEPKLVGAYLVSGSRSRIVDLINMIRELNAPILVFTRYPTFYQDLGENIKVIWITQASEDGIPPTKLHVIQDYAIKFAKENKYAVVIIDCVEYLLLYNEFASVFKFLASLKDYLIMMNSALVLAVDEKALDEKYYTLLLNEFEPL”, the protein production is reported as “failed”.

In the case of “MWWGVAAALLANVLYSTGFVLEKRALASLPEVDIRRPARLLRLVLGSPLWIGGSLSLAAGFGAQLAVYRTLPIAAAQGIFVSGLVLLVLLSARLLGEETTGRERYALGAILAALLMVVLSLREGSDKVSRSAPVPLILLVCVPSLAMGVWLYGSAERRARHRHRMPTTGVEYGVAVGLLYGVSSLAIKGVSSYLTPADGLGGAVVGLLRSPYPYLLLFTGVFGLVMSQAALQRCRASLIVPVCTTVTCLFTAVLGTLAFGEALPHEPLRLALRLAGTALAVSVLLAMPKHDTAPQPSAAPKELTPP”, the protein production is reported as “failed”.
